Measured values from article PMC3299407 (Biochemical Journal, 2011).
Where a chain is given by its changes, count along the chain named. Names and notes keep the numbering of the source.

Target: the molecule itself
Experiment: native gel or EMSA

B1: myc-laforin wild type (pCMVmyc-laforin WT) (natural protein, human, UniProt O95278 1-331, looked up)
chain: MRFRFGVVVPPAVAGARPELLVVGSRPELGRWEPRGAVRLRPAGTAAGDGALALQEPGLWLGEVELAAEEAAQDGAEPGRVDTFWYKFLKREPGGELSWEGNGPHHDRCCTYNENNLVDGVYCLPIGHWIEATGHTNEMKHTTDFYFNIAGHQAMHYSRILPNIWLGSCPRQVEHVTIKLKHELGITAVMNFQTEWDIVQNSSGCNRYPEPMTPDTMIKLYREEGLAYIWMPTPDMSTEGRVQMLPQAVCLLHALLEKGHIVYVHCNAGVGRSTAAVCGWLQYVMGWNLRKVQYFLMAKRPAVYIDEEALARAQEDFFQKFGKVRSSVCSL
stoichiometry N: 2

B2: myc-laforin S25D (pCMVmyc-laforin S25D) (natural protein, human, UniProt O95278 1-331, looked up)
chain: B1 chain with S25D
stoichiometry N: 2
